Measurements: the supplement of paper PMC12042874
± gives the uncertainty stated by the source.

Test: amyloid nucleation score (Sup35N fusion, yeast selection) (log enrichment); library NNK3; higher = more nucleation; inactive = no reads after selection
In short: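 The nucleation score, computed with DiMSum, is the log enrichment of output over input reads, centred on the mode score of non-aggregating sequences. Sequences with under 100 input reads were dropped. Reads were generated by Illumina sequencing of plasmid inserts from psi-negative yeast with Sup35N fused to peptides of 20 random codons, induced with 100 μM copper sulfate for 24 hours and grown 7 days at 30°C on medium lacking adenine and uracil.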

Substance	amyloid nucleation score
LLECNRTMPQLMVWEVFCSV	inactive
RNEWCFSKPILEYHCRMDVF	inactive
FGSVERFLLDPLTGHVGRFF	inactive
CPKALRIIGRSYCRTSEVTS	inactive
GPYHELCNHRL	inactive
GTYFSCVYGTKKL	inactive
TSIIRMAPRPTHSRVIWFKV	inactive
RCYKKVYLMLAVRLAPFGLG	inactive
LAVFSEARNEGTTQFYYLLK	inactive
PSTEI	inactive
GVSYSLCLLIGLNRIRMGMV	inactive
QMEKHLRAASVSVCTSQSPV	inactive
HVFCHVPNPCLVGSMLTLGD	inactive
DCLFRNLMS	inactive
GKDSGDCTRIRLGV	1.2 ± 0.14
TYIVAEANVRSVGDEQSMMN	inactive
GLVVWKNGINWLSEGVTIAR	0.567 ± 0.25
TNTNLMYGSGYLLLNGMQCN	inactive
IRLTVWDVNRDCR	inactive
LSYGFLGDRYVLHGCLMYFP	inactive
STMHELYV	inactive
VPSVYKKRWWYHKPWHNRHV	inactive
YLSGSDIGFGYERCKIDSGV	inactive
FCEFDIDVVLCTHRLYCNRY	inactive

Substance	amyloid nucleation score
SVLIFTMKDFLGEIFINVPT	1.89 ± 0.092
SYYLRLYEVTWFSRFGFDRS	inactive
CSATRYFCRNLRRVCVNEYG	inactive
YESHLLRNRDSRTYSR	inactive
AMGLACGLDGSAVFGCMLTT	inactive
DVGAPCGRFRPHFTNTCLDV	inactive
NLFDGTN	inactive
ILYLRVYITFVLIGNLEGFR	inactive
VLMSYQVCV	inactive
SVSSLRYY	inactive
WSFRVKTNRDDTEMLLSRSE	inactive
LYVHFSILCTFGWSVPNQEG	inactive
ETNQSMY	1.51 ± 0.075
YQIMDPNRLAFVTDMLSRDL	inactive
DASSDRVSVYSAYK	inactive
TFDSYPFVKGGISWPNMKYL	inactive
SALPVTSCFFTTMCGTVIID	inactive
FYYDRVTLRGNTNLGDLMHG	1.69 ± 0.076
KSGPYAVRLSEISWCDVRAG	0.153 ± 0.88
VSNLLIKVTRHASYDQSS	inactive
RGRYWWFYYLAFICMKWYSG	inactive
SRCWVYRKRTPCNVY	inactive
QYKSMAGSLWFNSVQEQASK	inactive
HSDKCDCSAVDDLLRRVVL	inactive

Substance	amyloid nucleation score
IVTHSMSSAHINRMNSRQ	inactive
FCLYTKLNVSIRGISDAYVY	inactive
LRSVFSRYFGQVHEFSRQRY	inactive
MYVSV	inactive
WRNMTI	inactive
RILLLDTEFRLPNLPTS	1.89 ± 0.072
YMLLCPRPRGRSLRINNNDE	inactive
HTWSCCYFLS	2.54 ± 0.063
FRVLDRSKKVNYRSFLYLIR	inactive
NDHVRAFTDIFMCTMAIMND	inactive
VFSEWYVFHGQEVSTIHCAH	inactive
CNYCGPEAFGILFDYWTMSY	inactive
CRRVMVILMH	inactive
VFNYVIGPGDKFAD	inactive
LMVSREFWCSLSKV	inactive
EGGMTTFYFC	2.13 ± 0.093
RAIGLGAFGIRRGGTRKWNE	-1.06 ± 2.5
RTRSVLQIWLSFMMLCQACW	-0.534 ± 1.5
RLRFLRT	inactive
LLVVY	inactive
RLRVG	inactive
DLDIRIFMVHDPAYCSLCSF	inactive
TRAYVVAIDQYFRGRRRNI	inactive
LRLVGLLMGNIFFELYGDLC	inactive

Substance	amyloid nucleation score
NVECSCDPEKTFIPKSVSLK	0.102 ± 0.63
FLRCTRPPTASENIFRDINY	inactive
FPKLWLFNYYVNRRIRSSSF	inactive
HKLVFEHRLLVGPRNVDIFL	inactive
SDLCRSMSNQFSELSSNDFV	inactive
LLKSGYYKGGFVKGAIRFRE	inactive
LTSSEQDAITLTTCGISECA	inactive
LFEPVIEILI	inactive
VHTMEEVA	inactive
LLIFYGKLMIWGSGHSDTFR	inactive
GSGGAMELVRFYYLNVAVCV	inactive
LYDSSYMVDIDSYTLENCRS	inactive
SWLIR	inactive
RSYRI	inactive
NRSCRDFRYY	inactive
SIWEHRSNS	inactive
VHFKRVEKG	inactive
WRSTRIRTSWHTDTDFLSNG	inactive
FSCCITNPTYTYCWEMVGVS	inactive
FMGQFIYLSSRCNSSVDSEV	inactive
VFNIRHSSDPRLYLTYVMSS	1.19 ± 0.12
LQYYLRPRFNLRLYGAIPPA	inactive
GFLESCENLVQFKRARWSNI	inactive
MSENLDKLKTFPPALE	inactive

Substance	amyloid nucleation score
ILILS	inactive
GFGESGNR	inactive
YFFIRVIALYLRVELSL	inactive
YACRVGVWKRVRVWNSGVSL	inactive
CFYEGYWREITNMAFLILRP	inactive
KDCMVYWLRI	inactive
VYQTFYAIV	inactive
FNDNVVVVSDNVVRRITSKS	inactive
FTYGMSSVFVGHF	inactive
EWKWQSKHTITYFLHHCSEH	0.534 ± 0.15
SELETQDIYMRSQPFTEFSP	inactive
SFDVLSRV	inactive
SHPYLT	0.071 ± 0.35
VAWRLFQNVWVHTGSDGYTV	-0.601 ± 1.1
SYYVNVRYWSITCPIWGLSD	2.29 ± 0.08
KTSVEISN	inactive
YFCVCSCVDFGYASYRGYAA	inactive
KTLIRASWSLSC	inactive
RRKYW	inactive
VLRAGELLF	inactive
MSSFLTPAGRFSRYFTFVCF	inactive
VFGPLYSSYDIRQ	inactive
